Laboratory results as given in PMC11077089, “Molecular basis of A. thaliana KEOPS complex in biosynthesizing tRNA t^6A” (Nucleic Acids Research, 2024).

Substrate: Nc1ncnc2c1ncn2[C@@H]1O[C@H](COP(=O)(O)OP(=O)(O)OP(=O)(O)O)[C@@H](O)[C@H]1O
Assay: NADH-coupled ATPase assay (pyruvate kinase / lactate dehydrogenase), Michaelis-Menten
Assay type: biochemical, Arabidopsis thaliana
Settings: no tRNA, 2 μM protein, 0–50 μM ATP, 5 mM MgCl2, pH 7.5, 25°C, BUD32 site

B1: AtKEOPS (wild-type KEOPS dimer, P2K2B2C2) (Arabidopsis thaliana) (protein)
chain: MDCEENVRDESLVLIKQGAEARVFESTFAGRRSIVKERFSKKYRHPILDAKLTLKRLNAEARCMTKARKLGVCTPVLYAVDTLLHSLTLEYIEGVSVKDIFLEFGTNGVVEERLDDVAAQIGAAIAKLHDGGLAHGDLTTSNMLVRSGTNQLVLIDFGLSVTSTLPEDKAVDLYVLERALLSMHSSCGNVMDRILTAYRKSSKQWSATFNKLAQVRQRGRKRTMIG
notes: reconstituted from KAE1-PCC1-6His and BUD32-CGI121-6His expressed in E. coli; SEC ~200 kDa dimer; some N-terminal KAE1 degradation; with tRNA N6-adenosine threonylcarbamoyltransferase KAE1; EKC/KEOPS complex subunit CGI121; EKC/KEOPS complex subunit PCC1
- Km: 0.95 ± 0.053 µM
- kcat: 0.019 ± 0.00073 s^–1
